In article PMC9333347 one finds stoichiometry N (HRP molecules per tES shell) data, which are given here for one substance.

The target of this assay is thermostable exoshell tES(+)F116H. As to the kind of experiment: AUC.

For “horseradish peroxidase (from UniProt P00433 31-338) (enzyme)”, the stoichiometry N (HRP molecules per tES shell) is 2.
